From patent publication US20050176073A1, “Cell proliferation associated with CCX CKR expression” (ChemoCentryx, Inc., priority 2004, published 2005)

Columns and labels:
[1] = biological target: T1, CCX CKR (Homo sapiens, UniProt Q9NPB9); assay: Small molecule modulators of CCX CKR function
T1 sequence (Q9NPB9 1-350): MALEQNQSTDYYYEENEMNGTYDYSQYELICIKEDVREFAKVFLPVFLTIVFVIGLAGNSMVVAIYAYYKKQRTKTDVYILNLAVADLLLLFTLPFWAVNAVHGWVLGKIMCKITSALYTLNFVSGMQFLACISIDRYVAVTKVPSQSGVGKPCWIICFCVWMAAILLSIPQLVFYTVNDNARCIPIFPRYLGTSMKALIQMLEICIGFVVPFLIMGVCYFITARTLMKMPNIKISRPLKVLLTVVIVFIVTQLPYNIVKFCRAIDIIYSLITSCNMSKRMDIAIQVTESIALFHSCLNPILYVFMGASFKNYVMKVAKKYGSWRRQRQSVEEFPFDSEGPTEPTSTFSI
Excerpt: Other compounds are based upon agonists and antagonists for CCX CKR, which have been identified and are shown below: […]

[2] = system: untransfected HEK293 cells; assay: PowerBlot protein expression analysis, untransfected HEK293 cells; type: cell-based, human; conditions: untransfected HEK293 cells contacted with ligand; FIG. 2
Method: (§1) Studies were also conducted to assess what effect CCX CKR activity had on protein expression. This was analyzed by determining protein levels for both unstransfected HEK293 cells, and HEK293 cells transfected with CCX CKR, grown both in the presence and absence of the ligands ELC, SLC or TECK. Protein levels were determined using the BD PowerBlot™ technology developed by Becton Dickinson, and available from BD Biosciences Pharmingen. In general, this analysis involves separating proteins in cellular lysates by polyacrylamide electrophoresis and then conducting a Western blot with over 1,000 monoclonal antibodies specific for certain proteins. Antibodies that bind to a protein band on the gel are visualized using a digital camera that detects chemiluminescence from the bound antibody. The amount of protein can be determined based upon the strength of the signal. Further details regarding the application of this technology are discussed by Lorenz, P., et al. Proteomics (2003) 3:991-1002; Malakhov, M. P., et al. (2003) J. Biol. Chem. .278:16608-13; and Yoo, G. H., et al. (2002) Clin Cancer Res. 8:3910-21.
(§2) FIG. 2 provides a chart that provides a comparison of the number of proteins that were increased and decreased under different sets of conditions.

[3] = biological target: T1, CCX CKR; conditions: WO 01/27146; cited from earlier work
[4] = system: HEK293 cells transfected with CCX CKR; assay: PowerBlot protein expression analysis, HEK293 cells transfected with CCX CKR; type: cell-based, human; conditions: relative to cells simply transformed with CCX CKR; FIG. 2
Method: as §1, §2

[5] = system: HEK293 cells transfected with CCX CKR; assay: Cell growth curves (hemacytometer counting) of HEK293 cells transfected with CCX CKR; type: cell-based, human; conditions: ligand in growth medium, growth curves over 6 days; FIG. 4
Method: Another set of experiments were conducted to ascertain whether CCX CKR plays a role in cell growth. One experiment involved culturing (1) untransfected HEK293 cells (ATCC #CRL 1573) (control), (2) HEK 293 cells transfected with CCX CKR as a polyclonal mixture, and (3) three different clones of HEK293 stably transfected with CCX CKR, thus giving a total of […] different cell cultures. Each of these cultures were obtained by seeding 50,000 cells/well in triplicate. The three different clones (clones 9, 12 and 13) were obtained by a limited dilution of the polyclonal mixture of cells.
Cells were allowed to attach for 12 hours in growth medium (Dulbecco's minimal essential medium with 10% fetal bovine serum), then cultured in the absence of fetal bovine serum for 12 hours to synchronize the cell cycle. Growth medium was then added back to cells, and plates returned to the incubator. Each day for 6 days, cells were removed with trypsin and counted with a hemacytometer.
Another set of experiments were conducted using the same procedure just described to address two issues: (1) whether the autoactive response observed in the first set of experiments was simply a consequence of the transformation process, and (2) to determine what effect ligands had on the ability of CCX CKR to promote cellular growth. […]

## CCC(c1nc2ccccc2c(=O)n1C)N(Cc1ccco1)C(=O)Nc1cccc(C(F)(F)F)c1 (centres unmarked) [Compound III]
[1]
  Modulation of CCX CKR function (agonist or antagonist): Compound III (agonist)

## CC1CCCCN1CCCN(Cc1ccc(OCc2ccccc2)cc1)C(=O)NC12CC3CC(CC(C3)C1)C2 (centres unmarked) [Compound II]
[1]
  Modulation of CCX CKR function (agonist or antagonist): Compound II (antagonist)

## CC1CCCCN1CCCN(Cc1ccc(OCc2ccccc2)cc1)C(=O)Nc1ccc(Cl)c(Cl)c1 (centres unmarked) [Compound I]
[1]
  Modulation of CCX CKR function (agonist or antagonist): Compound I (antagonist)

## ELC: chemokine, CCX CKR ligand, also referred to as MIP-3β
[2]
  Effect on protein expression levels: relatively minor effect on protein expression levels
[3]
  Affinity of CCX CKR for chemokine: high affinity
[4]
  Change in protein expression on addition of ligand: only a modest change in protein expression

B1: TECK: chemokine, CCX CKR ligand (protein, UniProt O15444 24-150, looked up)
C-C motif chemokine 25: QGVFEDCCLAYHYPIGWAVLRRAWTYRIQEVSGSCNLPAAIFYLPKRHRKVCGNPKSREVQRAMKLLDARNKVFAKLHHNTQTFQAGPHAVKKLSSGNSKLSSSKFSNPISSSKRNVSLLISANSGL
[3]
  Affinity of CCX CKR for chemokine: high affinity
[4]
  Change in protein expression on addition of ligand: only a modest change in protein expression
[5]
  Effect on cell growth: modest effect on cell growth activity, with perhaps even a slight decrease in cell growth

B2: SLC: chemokine, CCX CKR ligand, also referred to as 6-Ckine (protein, UniProt O00585 24-134, looked up)
C-C motif chemokine 21: SDGGAQDCCLKYSQRKIPAKVVRSYRKQEPSLGCSIPAILFLPRKRSQAELCADPKELWVQQLMQHLDKTPSPQKPAQGCRKDRGASKTGKKGKGSKGCKRTERSQTPKGP
[3]
  Affinity of CCX CKR for chemokine: high affinity
[4]
  Change in protein expression on addition of ligand: only a modest change in protein expression
